One may read the Kd as a measure of binding affinity in units of concentration. Low values mean tighter binding, high ones weaker binding.

This experiment addresses T1, His-tagged extracellular domain of antigen DDR2 (human, UniProt Q16832 22-399).
T1 construct: range 22-399; Captured on Ni-NTA sensors in BLI; also called extracellular domain protein of the DDR2 antigen; DDR2 antigen; not shown: His tag
T1 sequence (looked up): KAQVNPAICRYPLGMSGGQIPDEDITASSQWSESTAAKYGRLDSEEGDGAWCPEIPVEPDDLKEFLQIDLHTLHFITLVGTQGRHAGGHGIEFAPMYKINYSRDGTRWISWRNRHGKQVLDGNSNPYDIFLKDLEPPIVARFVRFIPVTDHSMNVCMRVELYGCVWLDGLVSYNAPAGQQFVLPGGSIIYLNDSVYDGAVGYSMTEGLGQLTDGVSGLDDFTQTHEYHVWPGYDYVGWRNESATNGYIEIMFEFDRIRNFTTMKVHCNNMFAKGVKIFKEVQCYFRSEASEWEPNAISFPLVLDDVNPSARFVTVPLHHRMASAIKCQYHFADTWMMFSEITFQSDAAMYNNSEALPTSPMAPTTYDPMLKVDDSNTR
Put plainly: BLI (ForteBio), His-tagged DDR2 extracellular domain captured on Ni-NTA sensor, nanobody 100 nM to 3.125 nM in solution, 1:1 fit. The protocol:
For the DDR2 nanobody 1A12 described above, based on the ForteBio bio-layer interferometry (BLI) platform for molecular interaction analysis, the affinity of the nanobody for the extracellular domain protein of the DDR2 antigen was analyzed and detected by determining the affinity of the antibody for the antigen by using the BLI method.
The kinetic curves were made, and the relevant parameters were calculated. Appropriate binding and dissociation curves of several concentration gradients were selected. All the curves were fitted using the 1:1 binding model. Three curves with the best fitting degrees were selected for plotting and analysis. Finally, important parameters such as affinity value, binding constant, and dissociation constant were obtained.

B1: DDR2 nanobody 1A12 (VHH)
VHH: EVQLVESGGGLVQPGGSLRLSCAASGYILSPNVMGWFRQAPGKGRELVAAISWGDGRTYYPDSVEGRFTISRDNAKRMVYLQMNSLRAEDTAVYYCAASRKGYPSTRSDPYNYWGQGTQVTVSS
notes: VHH of an alpaca heavy chain antibody raised against the human DDR2 extracellular domain; Expressed and purified; also called Nb-DDR2; 1A12-VHH
On to B1, for which binding was put at a Kd of 4.36 nM. That is a single-digit nanomolar value.
